Data: patent US20210102195A1 (TWIST BIOSCIENCE, published 2021)
Positions count from the first letter of the chain named. Where two headings read alike, the source gives them in different places. Blank lines part the entries; values can stand above or below the binder they belong to.

Key:
CRTH2R [1] = molecular target: T1, CRTH2R (UniProt Q9Y5Y4 1-395, limits assumed); experiment: cell-based or functional assay
T1 sequence (looked up): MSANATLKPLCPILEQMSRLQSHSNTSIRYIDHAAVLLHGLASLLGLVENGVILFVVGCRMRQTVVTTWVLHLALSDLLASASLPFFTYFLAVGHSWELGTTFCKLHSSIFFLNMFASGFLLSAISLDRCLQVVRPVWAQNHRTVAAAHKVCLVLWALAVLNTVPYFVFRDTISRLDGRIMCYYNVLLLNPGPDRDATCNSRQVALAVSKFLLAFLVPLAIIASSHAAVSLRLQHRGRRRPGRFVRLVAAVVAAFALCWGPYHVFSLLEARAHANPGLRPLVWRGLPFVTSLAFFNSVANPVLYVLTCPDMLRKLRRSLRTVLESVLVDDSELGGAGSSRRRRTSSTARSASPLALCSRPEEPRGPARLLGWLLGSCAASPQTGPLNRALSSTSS

CRTH2R [2] = molecular target: T1, CRTH2R; experiment: flow cytometry (MFI), CHO CRTH2R-positive cells against parental CHO cells; same panel as in FIG. 15B; grey = CRTH2R cells, black = parental cells (no legend on the panel)
Procedure: (§1) Cell binding of anti-CRTH2R antibodies was determined by testing on CHO CRTH2R-positive cells (GFP+) and parental CHO cells (GFP−), comparing parental negative and target positive cells to rule out false-positives. Antibodies as listed in Table 14A were titrated starting at 100 nM (15 ug/mL) with 3-fold titrations, for a total of 8 points. Two antibodies (gPCR-51 and gPCR-52) were used as a positive control.

CRTH2R [3] = molecular target: T1, CRTH2R; experiment: flow cytometry (MFI), CHO CRTH2R-positive cells against parental CHO cells, 3-fold titration from 100 nM; grey = CRTH2R cells, black = parental cells (no legend on the panel)
Procedure: as §1

human CD3 epsilon = molecular target: T2, human CD3 epsilon (human, UniProt P07766 23-126, limits assumed); experiment: affinity of IgG; method not stated; human CD3 epsilon
T2 construct: also called hCD3; hCD3 epsilon
T2 sequence (P07766 23-126 limits assumed): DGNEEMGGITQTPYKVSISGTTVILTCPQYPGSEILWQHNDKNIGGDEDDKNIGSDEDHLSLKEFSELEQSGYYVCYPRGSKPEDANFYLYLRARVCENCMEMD

hCRTH2R [4] = molecular target: T3, hCRTH2R (human, UniProt Q9Y5Y4 1-395); experiment: cell-based or functional assay
T3 sequence (looked up): T1 sequence (looked up)

hCRTH2R [5] = molecular target: T3, hCRTH2R; experiment: flow cytometry (MFI) cell binding titration, upper grey curve; cell lines not labelled on the sheet
hCRTH2R [6] = molecular target: T3, hCRTH2R; experiment: flow cytometry (MFI) cell binding titration; number in grey print, taken with the upper grey curve; the sheet does not label the cell lines of the two curves
hCRTH2R [7] = molecular target: T3, hCRTH2R; experiment: cell-based or functional assay; remark: listed apart in the source
hCRTH2R [8] = molecular target: T3, hCRTH2R; experiment: flow cytometry (MFI) cell binding titration; number in grey print, taken with the upper grey curve; the sheet does not label the cell lines of the two curves; remark: listed apart in the source
hCRTH2R [9] = molecular target: T3, hCRTH2R; experiment: cell-based or functional assay; remark: listed apart in the source
hCRTH2R [10] = molecular target: T3, hCRTH2R; experiment: flow cytometry (MFI) cell binding titration; number in grey print, taken with the upper grey curve; the sheet does not label the cell lines of the two curves; remark: listed apart in the source
CRTH2R [11] = molecular target: T1, CRTH2R; experiment: flow cytometry (MFI), CHO CRTH2R-positive cells against parental CHO cells; same panel as in FIG. 15C; grey = CRTH2R cells, black = parental cells (no legend on the panel)
Procedure: as §1

CRTH2R [12] = molecular target: T1, CRTH2R; experiment: cell-based or functional assay; remark: listed apart in the source
CRTH2R [13] = molecular target: T1, CRTH2R; experiment: flow cytometry (MFI), titration 0.05-100 nM on CRTH2R cells against parent cells; no legend on the panel: grey curve and grey EC50 taken as the CRTH2R cells, black (ND) as the parent cells
human TIGIT = molecular target: T4, human TIGIT (human, UniProt Q495A1 22-141, limits assumed); experiment: monovalent affinity of the hTIGIT IgGs; method not named in Example 14
T4 construct: also called hTIGIT
T4 sequence (looked up): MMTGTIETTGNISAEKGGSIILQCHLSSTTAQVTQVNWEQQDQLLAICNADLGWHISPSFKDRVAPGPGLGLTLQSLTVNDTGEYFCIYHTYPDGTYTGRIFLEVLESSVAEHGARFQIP

CRTH2R [14] = molecular target: T1, CRTH2R; experiment: flow cytometry (MFI), CHO CRTH2R-positive cells against parental CHO cells; same panel as in FIG. 15E; grey = CRTH2R cells, black = parental cells (no legend on the panel)
Procedure: as §1

IC50 fold difference of the PGD2 dose response (cAMP) with 100 nM IgG (CRTH2R [1]): > 2 fold | EC50 (CRTH2R [2]): 42 nM | EC50 (CRTH2R [3]): 42 nM
B1: CRTH2-27 (antibody, V domains shown)
VH: QVQLVESGGGVVQPGRSLRLSCAASGFTFDNYGMHWVRQAPGKGLEWVAVISYEGSNKKYADSVKGRFTISRDNSKNTLYLQMNSLRAEDTAVYYCARDMYYDFGSIYGEDVVGELPEVVPADDAFDIWGQGTLVTVSS
VL: QSALTQPASVSGSPGQSITISCTGTSNDVGAYNFVSWYQQHPGKAPKLMIYDISNRPSGVSNRFSGSKSGNTASLTISGLQAEDEADYYCSSYTRSNTRVFGGGTKLTVL
notes: CRTH2R IgG

IC50 fold difference of the PGD2 dose response (cAMP) with 100 nM IgG (CRTH2R [1]): > 2 fold | antagonist activity in PGD2-induced cAMP assay at 33 nM IgG (CRTH2R [1]): > 20% | EC50 (CRTH2R [2]): 14.9 nM | EC50 (CRTH2R [3]): 14.9 nM
B2: CRTH2-9 (antibody, V domains shown)
VH: QVQLVQSGAEVKKPGSSVKVSCKASGGTFSSYAISWVRQAPGQGLEWMGGIIPIFGTANYAQKFQGRVTITADESTSTAYMELSSLRSEDTAVYYCARDMYYDFWLGDQSTGSLIGAEVVPADDAFDIWGQGTLVTVSS
VL: QSVLTQPPSVSAAPGQKVTISCSGSTSNIGNNYVSWYQQLPGTAPKLLIYENDERPSGIPDRFSGSKSGTSATLGITGLQTGDEADYYCATWDTRLSAVVFGGGTKLTVL
notes: CRTH2R IgG

Kd (human CD3 epsilon): 67 nM
B3: CD3-56-05 (antibody, V domains shown)
VH: EVQLLESGGGLVQPGGSLRLSCAASGFTFSSYAMNWVRQAPGKGLEWVSAVSGSGGRTYYADSVKGRFTISRDNSKNTLYLQMNSLRAEDTAVYYCARERATTLDYWGQGTLVTVSS
VL: DIQMTQSPSSLSASVGDRVTITCRASQTIYSHLNWYQQKPGKAPKLLIYVASRLQSGVPSRFSGSGSGTDFTLTISSLQPEDFATYYCQQSFSTSWTFGGGTKVEIK
notes: IgG; also called CD3-56-5

IC50 of PGD2 in the CRTH2 DiscoverX cAMP assay after 200nM IgG pre-incubation (+ no Ab: 0.2487), the axis reads PGD2 (hCRTH2R [4]): 0.356 nM | EC50 (read off the curve) (hCRTH2R [5]): ~2 nM | EC50 (hCRTH2R [6]): 0.579 nM
B4: CRTH2-48-3 (antibody, V domains shown)
VH: EVQLVESGGGLVQAGGSLRLSCAASGSIFRINAMGWFRQAPGKEREGVAAINNFGTTKYADSVKGRFTISADNAKNTVYLQMNSLKPEDTAVYYCAAVRWGPRNDDRYDWGQGTQVTVSS
VL: DIQMTQSPSSLSASVGDRVTITCRASQSISSDLNWYQQKPGKAPKLLIYFASGLQSGVPSRFSGSGSGTDFTLTISSLQPEDFATYYCQQSYSSPLTFGGGTKVEIKR
notes: CRTH2R immunoglobulin (IgG); also called CRTH2-48-03

IC50 of PGD2 in the CRTH2 DiscoverX cAMP assay after 200nM IgG pre-incubation (+ no Ab: 0.4559), the axis reads PGD2 (hCRTH2R [7]): 0.567 nM | EC50 (hCRTH2R [8]): 1.32 nM
B5: CRTH2-48-21 (antibody, V domains shown)
VH: EVQLVESGGGLVQAGGSLRLSCAASGSFFSINAMGWFRQAPGKEREFVAGITRSGVSTSYADSVKGRFTISADNAKNTVYLQMNSLKPEDTAVYYCAAHRIVVGGTSVGDWRWGQGTQVTVSS
VL: B4 VL with A25T, S31N, D32Y, F50A, A51T, G53S, Q55E, S94T, P95L
notes: CRTH2R immunoglobulin (IgG)

IC50 of PGD2 in the CRTH2 DiscoverX cAMP assay after 200nM IgG pre-incubation (+ no Ab: 0.4559), the axis reads PGD2 (hCRTH2R [9]): 0.407 nM | EC50 (hCRTH2R [10]): 0.859 nM
B6: CRTH2-48-27 (antibody, V domains shown)
VH: B4 VH with R30H, D72N, Q115L
VL: B4 VL with S31R, D32Y, N34H, F50G, G53R, Q55E, Q89R, S94T, L96W
notes: CRTH2R immunoglobulin (IgG)

IC50 fold difference of the PGD2 dose response (cAMP) with 100 nM IgG (CRTH2R [1]): > 2 fold | EC50 (CRTH2R [11]): 12.4 nM | EC50 (CRTH2R [3]): 12.4 nM
B7: CRTH2-32 (antibody, V domains shown)
VH: QVQLVESGGGVVQPGRSLRLSCAASGFTFSKHGMHWVRQAPGKGLEWVAFISYEGSEKYYADSVKGRFTISRDNSKNTLYLQMNSLRAEDTAVYYCARDMYYDFHYSTVGATYYYYLGSETEVVPADDAFDIWGQGTLVTVSS
VL: QSALTQPASVSGSPGQSITISCTGTSSGVGGYDYVSWYQQHPGKAPKLMIYDDNNRPSGVSNRFSGSKSGNTASLTISGLQAEDEADYYCSSYTGSSTLYVFGGGTKLTVL
notes: CRTH2R IgG

IC50 fold diff. of the PGD2 dose response in the CRTH2 DiscoverX allosteric cAMP assay (+ CRTH2-41-51-VHH against + no Ab) (CRTH2R [12]): 2.18 fold | EC50 (CRTH2R [13]): 0.181 nM
B8: CRTH2-41-51 (Fc fusion, not shown: a dimerising Fc or GST)
chain: EVQLVESGGGLVQPGGSLRLSCAASGGIFRFNAMGWFRQAPGKERELVAGISGSGGDTYYADSVKGRFTISADNSKNTAYLQMNSLKPEDTAVYYCAAFRGIMRPDWGQGTLVTVSS

Kd (human TIGIT): 139 nM
B9: TIGIT-55-14 (antibody, V domains shown)
VH: EVQLLESGGGLVQPGGSLRLSCAASGFMFSRYAMSWVRQAPGKGLEWVSSISGSGGTTYYADSVKGRFTISRDNSKNTLYLQMNSLRAEDTAVYYCARRGSGWYIDSWGQGTLVTVSS
VL: DIQMTQSPSSLSASVGDRVTITCRASQSVSRYLNWYQQKPGKAPKLLIYGSSNLQSGVPSRFSGSGSGTDFTLTISSLQPEDFATYYCQESYSTPFTFGGGTKVEIK
notes: hTIGIT IgG

IC50 fold difference of the PGD2 dose response (cAMP) with 100 nM IgG (CRTH2R [1]): > 2 fold | EC50 (CRTH2R [14]): 19.6 nM | EC50 (CRTH2R [3]): 19.6 nM
B10: CRTH2-50 (antibody, V domains shown)
VH: QVQLVQSGAEVKKPGSSVKVSCKASGGTFSSYALSWVRKAPGQGLEWMGGTIPIFGTVNYAQKFQGRVTITADESTSTAYMELSSLRSEDTAVYYCARANQHFTRVIGQPSPAVPSRGYIYHGYHYYGMDVWGQGTLVTVSS
VL: QSALTQPASVSGSPGQSITISCTGTSSDIGGYNFVSWYQQHPGKAPKLMIYDVSNRPQGVSNRFSGSKSGNTASLTISGLQAEDEADYYCSSYTSSNTYVVFGGGTKLTVL
notes: CRTH2R IgG
